Earlier results in US20080125354A1, “SELECTIVE INHIBITION OF MATRIX METALLOPROTEINASES” (Florida Atlantic University, priority 2005, published 2008).
Values belong to the substance of their own block, whether it stands above or below them.

Experiments:
[1] = target: T1, MMP-2 (Homo sapiens, UniProt P08253); conditions: MMP-2, earlier study
T1 sequence (P08253 110-660): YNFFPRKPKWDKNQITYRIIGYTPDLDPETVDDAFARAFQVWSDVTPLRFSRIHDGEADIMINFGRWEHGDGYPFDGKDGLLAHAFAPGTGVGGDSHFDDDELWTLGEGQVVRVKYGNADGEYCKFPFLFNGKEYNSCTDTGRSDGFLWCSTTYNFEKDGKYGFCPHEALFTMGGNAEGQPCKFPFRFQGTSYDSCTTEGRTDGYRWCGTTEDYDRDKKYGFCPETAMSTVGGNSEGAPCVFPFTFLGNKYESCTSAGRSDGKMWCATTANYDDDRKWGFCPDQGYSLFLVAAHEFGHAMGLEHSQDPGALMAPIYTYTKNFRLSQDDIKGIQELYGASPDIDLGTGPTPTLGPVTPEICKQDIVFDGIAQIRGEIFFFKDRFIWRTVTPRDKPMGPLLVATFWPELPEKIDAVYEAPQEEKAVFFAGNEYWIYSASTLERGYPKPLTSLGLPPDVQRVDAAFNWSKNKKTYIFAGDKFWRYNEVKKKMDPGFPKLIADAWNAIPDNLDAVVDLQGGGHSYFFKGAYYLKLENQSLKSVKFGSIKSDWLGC

[2] = target: T2, MMP-1 (Homo sapiens, UniProt P03956); conditions: 30° C., 40 nM enzyme, 40 μM substrate
T2 construct: made in house
T2 sequence (P03956 100-469): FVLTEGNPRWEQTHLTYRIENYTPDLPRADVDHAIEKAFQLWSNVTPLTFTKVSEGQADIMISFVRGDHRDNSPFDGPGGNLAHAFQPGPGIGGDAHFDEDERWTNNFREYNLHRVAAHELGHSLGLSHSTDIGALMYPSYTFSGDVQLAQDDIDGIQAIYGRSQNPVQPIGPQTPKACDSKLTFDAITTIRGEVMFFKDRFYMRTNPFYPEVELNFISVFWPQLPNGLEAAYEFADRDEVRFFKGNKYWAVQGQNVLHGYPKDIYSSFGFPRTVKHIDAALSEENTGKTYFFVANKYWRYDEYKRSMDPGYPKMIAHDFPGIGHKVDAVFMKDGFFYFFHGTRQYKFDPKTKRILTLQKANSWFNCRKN

[3] = target: MMP-9 (Homo sapiens, UniProt P14780); conditions: 30° C., 40 nM enzyme, 40 μM substrate
Sequence of MMP-9 (P14780 94-707): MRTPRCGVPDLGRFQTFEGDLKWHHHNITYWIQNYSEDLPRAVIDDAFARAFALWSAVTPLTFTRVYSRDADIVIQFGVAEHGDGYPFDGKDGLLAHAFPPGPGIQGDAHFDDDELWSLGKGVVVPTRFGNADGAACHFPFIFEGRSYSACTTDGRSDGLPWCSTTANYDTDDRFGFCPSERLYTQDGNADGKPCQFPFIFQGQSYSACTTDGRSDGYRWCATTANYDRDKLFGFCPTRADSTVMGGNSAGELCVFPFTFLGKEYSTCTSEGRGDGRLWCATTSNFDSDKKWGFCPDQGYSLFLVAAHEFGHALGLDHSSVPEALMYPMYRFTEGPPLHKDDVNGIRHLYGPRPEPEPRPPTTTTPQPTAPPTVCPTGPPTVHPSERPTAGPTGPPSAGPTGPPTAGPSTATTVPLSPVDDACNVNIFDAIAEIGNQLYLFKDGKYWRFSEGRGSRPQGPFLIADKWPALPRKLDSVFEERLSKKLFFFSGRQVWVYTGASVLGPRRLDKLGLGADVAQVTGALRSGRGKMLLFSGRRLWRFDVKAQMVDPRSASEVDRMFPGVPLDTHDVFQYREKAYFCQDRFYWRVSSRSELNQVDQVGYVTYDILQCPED

[4] = target: T2, MMP-1; conditions: MMP-1, second earlier study
[5] = target: T3, MMP-3 (Homo sapiens, UniProt P08254); conditions: 30° C., 40 nM enzyme, 40 μM substrate
T3 construct: made in house
T3 sequence (P08254 100-477, species assumed): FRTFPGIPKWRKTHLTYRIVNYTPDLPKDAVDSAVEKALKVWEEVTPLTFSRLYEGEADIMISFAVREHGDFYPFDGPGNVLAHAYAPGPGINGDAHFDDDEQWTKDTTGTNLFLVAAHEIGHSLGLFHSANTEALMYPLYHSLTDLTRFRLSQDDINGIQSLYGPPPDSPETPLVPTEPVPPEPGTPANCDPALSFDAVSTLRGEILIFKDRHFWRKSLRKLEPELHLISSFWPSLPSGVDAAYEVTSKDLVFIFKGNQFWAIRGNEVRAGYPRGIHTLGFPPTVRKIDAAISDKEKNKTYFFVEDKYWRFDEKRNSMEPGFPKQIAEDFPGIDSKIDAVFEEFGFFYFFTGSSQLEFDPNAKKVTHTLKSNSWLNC

[6] = target: T4, MMP-8 (Homo sapiens, UniProt P22894); conditions: 30° C., 40 nM enzyme, 40 μM substrate
T4 construct: made in house; host or cells: CHO-K1 cells
T4 sequence (P22894 101-467, species assumed): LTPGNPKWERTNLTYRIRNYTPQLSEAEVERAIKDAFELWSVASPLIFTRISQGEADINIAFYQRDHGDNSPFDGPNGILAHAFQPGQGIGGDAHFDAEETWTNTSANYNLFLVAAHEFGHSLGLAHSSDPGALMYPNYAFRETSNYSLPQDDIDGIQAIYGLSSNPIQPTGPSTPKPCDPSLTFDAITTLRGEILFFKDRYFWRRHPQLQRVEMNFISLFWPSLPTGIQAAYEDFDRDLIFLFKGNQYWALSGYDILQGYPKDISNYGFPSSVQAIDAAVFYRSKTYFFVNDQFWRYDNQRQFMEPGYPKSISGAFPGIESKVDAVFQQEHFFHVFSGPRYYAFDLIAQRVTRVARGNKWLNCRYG

[7] = target: T1, MMP-2; conditions: 30° C., 40 nM enzyme, 40 μM substrate
[8] = target: MMP-14 (Homo sapiens, UniProt P50281); conditions: 30° C., 40 nM enzyme, 40 μM substrate
[9] = target: T5, MMP-13 (Homo sapiens, UniProt P45452); conditions: 30° C., 40 nM enzyme, 40 μM substrate
T5 construct: purchased R&D Systems (Minneapolis, Minn.)

- IC50 [1]: 90 µM
Substance: (Pro-Pro-Gly)12-NHOH

- time to hydrolysis of the substrate by MMP-9 [3]: ≤ 1 h
Substance: C6-(Gly-Pro-Hyp)4-Gly-Pro-Pro-Gly˜Val-Val-Gly-Glu-Gln-Gly-Glu-Gln-Gly-Pro-Pro-(Gly-Pro-Hyp)4-NH2 [SEQ ID NO: 5]
- hydrolysis of the substrate by MMP-1 (in words) [2]: did not cleave the substrate even after 24 h

- IC50 [1]: 160 µM
Substance: (Pro-Pro-Gly)6-NHOH

- IC50 [4]: ~0.009 µM
Substance: hydroxamate-containing peptidomimetic onto the N-terminus of (Gly-Pro-Hyp)-4-Gly-Pro-Pro-Gly-Ser-Ser [C-terminally branched construct of a second earlier study carrying a hydroxamate-containing peptidomimetic]

- hydrolysis of the substrate by MMP-1 (in words) [2]: hydrolyzed the substrate efficiently
- hydrolysis of the substrate by MMP-3 (in words) [5]: did not
- hydrolysis of the substrate by MMP-8 (in words) [6]: hydrolyzed the substrate efficiently
- hydrolysis of the substrate by MMP-2 (in words) [7]: hydrolyzed the substrate efficiently
- hydrolysis of the substrate by MMP-14 (in words) [8]: hydrolyzed the substrate efficiently
- hydrolysis of the substrate by MMP-13 (in words) [9]: hydrolyzed the substrate efficiently
Substance: (Gly-Pro-Hyp)5-Gly-Pro-Gln-Gly˜Leu-Ala-Gly-Gln-Arg-Gly-Ile-Arg-(Gly-Pro-Hyp)5-NH2 [SEQ ID NO: 6]
